# Measured values reported in patent publication US20240033318A1 (OHIO STATE INNOVATION FOUNDATION, published 2024).
# Non-standard residues stand in square brackets, D forms with d. Primed or numbered codes have the meaning given here. No end group written: not given here. *: point of attachment. FITC′ = fluorescein isothiocyanate (fluorescein label attached to the Lys side chain); FITC″ = fluorescein isothiocyanate, fluorescein thiocarbamoyl on Lys NZ; FITC = O=C1OC2(c3ccc(O)cc3Oc3cc(O)ccc32)c2ccc(NC(=S)*)cc21; Benzoyl(2,3-Cl2) = O=C(c1cccc(Cl)c1Cl)*; Phe(4-F) = N[C@@H](Cc1ccc(F)cc1)C(=O)O; Tle = CC(C)(C)[C@H](N)C(=O)O; acyl = not defined here; Bz = O=C(c1ccccc1)*; βAla = NCCC(=O)O
# B1: CNI95 labeled at the C-terminus with FITC (peptide)
# peptide: XIXITQHLSKFXRRRRQ
# modifications: not fully specified; sequence of peptide 14 (Dcb-ZIZIT-Gln-His-leu-Ser) conjugated to CPP9, cyclo(fΦRrRrQ), through a miniPEG-Lys linker; FITC at the C-terminus; Z = Tle; D-Leu
# notes: also called FITC-labeled CNI95
# B2: CNI93 (peptide)
# peptide: XIXITQHLSXKFXRRRRQ
# modifications: not fully specified; sequence of peptide 14 (Dcb-ZIZIT-Gln-His-leu-Ser) with cyclic CPP9, cyclo(fΦRrRrQ), attached to the C-terminus through an amide bond and a βAla-Lys linker; Z = Tle; D-Leu
# notes: A biotinylated form was used in the macrophage experiment
# B3: peptide 7: acyl-ZIZITGPHEEYK(FITC)-NH2 (peptide)
# peptide: acyl-[Tle]I[Tle]ITGPHEEYK(FITC″)-NH2
# modifications: reading uncertain; also: N-terminal acyl: halogenated and/or alkylated benzoyl, not named, printed as peptide 7: acyl-ZIZITGPHEEYK(FITC)-NH2
# B4: compound 46: (DCNA)-Tle-Ile-Psa-Ile-Thr-Gln-His-(D-Leu)-Ser-miniPEG-Lys{[cyclo-(Gln-(D-Arg)-Arg-(D-Arg)-Arg-(2-Nal)-(D-Phe)]}-NH2 (peptide)
# peptide: XIXITQHLSKQRRRRXF
# modifications: not fully specified; N-terminal DCNA; Tle; Psa = L-penicillamine sulfonic acid; D-Leu; miniPEG; Lys side chain carrying cyclo-(Gln-(D-Arg)-Arg-(D-Arg)-Arg-(2-Nal)-(D-Phe)); C-terminal amide
# B5: compound 48: (DFNA)-Tle-Ile-Bhv-Ile-Thr-Gln-His-(D-Leu)-Ser-miniPEG-Lys{[cyclo-(Gln-(D-Arg)-Arg-(D-Arg)-Arg-(2-Nal)-(D-Phe)]}-NH2 (peptide)
# peptide: XIXITQHLSKQRRRRXF
# modifications: not fully specified; N-terminal DFNA (2,3-difluoroisonicotinamide); Tle; Bhv = L-β-hydroxyvaline; D-Leu; miniPEG; Lys side chain carrying cyclo-(Gln-(D-Arg)-Arg-(D-Arg)-Arg-(2-Nal)-(D-Phe)); C-terminal amide
# B6: compound 51: (DFNA)-Tle-Chg-Psa-Ile-Thr-Gln-His-(D-Leu)-Ser-miniPEG-Lys{[cyclo-(Gln-(D-Arg)-Arg-(D-Arg)-Arg-(2-Nal)-(D-Phe)]}-NH2 (peptide)
# peptide: XXXITQHLSKQRRRRXF
# modifications: not fully specified; N-terminal DFNA (2,3-difluoroisonicotinamide); Tle; Chg = L-cyclohexylglycine; Psa = L-penicillamine sulfonic acid; D-Leu; miniPEG; Lys side chain carrying cyclo-(Gln-(D-Arg)-Arg-(D-Arg)-Arg-(2-Nal)-(D-Phe)); C-terminal amide
# B7: CNI95 (unlabeled) (peptide)
# peptide: XIXITQHLSKFXRRRRQ
# modifications: not fully specified; sequence of peptide 14 (Dcb-ZIZIT-Gln-His-leu-Ser) conjugated to CPP9, cyclo(fΦRrRrQ), through a miniPEG-Lys linker; Z = Tle; D-Leu
# B8: control: (DCB)-Tle-Ile-Tle-Ile-Thr-Gln-His-(D-Leu)-Ser-(β-Ala)-Lys{[cyclo-(Gln-(D-Arg)-Arg-(D-Arg)-Arg-(2-Nal)-(D-Phe)]}-NH2 (peptide)
# peptide: XIXITQHLSXKQRRRRXF
# modifications: not fully specified; N-terminal DCB (2,3-dichlorobenzoyl); Tle at 1 and 3; D-Leu; β-Ala; Lys side chain carrying cyclo-(Gln-(D-Arg)-Arg-(D-Arg)-Arg-(2-Nal)-(D-Phe)); C-terminal amide
# notes: It is therefore kept as a separate molecule
# B9: compound 45: (DCNA)-Tle-Chg-Bhv-Ile-Thr-Gln-His-(D-Leu)-Ser-miniPEG-Lys{[cyclo-(Gln-(D-Arg)-Arg-(D-Arg)-Arg-(2-Nal)-(D-Phe)]}-NH2 (peptide)
# peptide: XXXITQHLSKQRRRRXF
# modifications: not fully specified; N-terminal DCNA; Tle; Chg = L-cyclohexylglycine; Bhv = L-β-hydroxyvaline; D-Leu; miniPEG; Lys side chain carrying cyclo-(Gln-(D-Arg)-Arg-(D-Arg)-Arg-(2-Nal)-(D-Phe)); C-terminal amide
# B10: CNI88 (peptide)
# peptide: XIXITYEXGAKFXRRRRQ
# modifications: not fully specified; sequence of peptide 13 (Dcb-ZIZIT-Tyr-glu-Fpa-Gly) with cyclic CPP9, cyclo(fΦRrRrQ), attached to the C-terminus through an amide bond and a βAla-Lys linker; Z = Tle; D-Glu; Fpa = …
# B11: CNI101: (DCNA)-Tle-Ile-Tle-Ile-Thr-Gln-His-(D-Leu)-Ser-miniPEG-Lys{[cyclo-(Gln-(D-Arg)-Arg-(D-Arg)-Arg-(2-Nal)-(D-Phe)]}-NH2 (peptide)
# peptide: XIXITQHLSKQRRRRXF
# modifications: not fully specified; N-terminal DCNA (2,3-dichlorisonicotinamide; Table 8 prints DCN, 2,3-dichloro-4-pyridinyl); Tle at 1 and 3; D-Leu; miniPEG; Lys side chain carrying cyclo-(Gln-(D-Arg)-Arg-(D-Arg)-Arg-(2-Nal)-(D-Phe)); C-terminal amide
# notes: also called compound 41; 41
# B12: compound 44 (CNI104): (DCNA)-Tle-Chg-Bhv-Ile-Thr-Gln-His-(D-Leu)-Ser-βAla-Lys{[cyclo-(Gln-(D-Arg)-Arg-(D-Arg)-Arg-(2-Nal)-(D-Phe)]}-NH2 (peptide)
# peptide: XXXITQHLSXKQRRRRXF
# modifications: not fully specified; N-terminal DCNA (2,3-dichlorisonicotinamide); Tle; Chg = L-cyclohexylglycine; Bhv = L-β-hydroxyvaline; D-Leu; βAla; Lys side chain carrying cyclo-(Gln-(D-Arg)-Arg-(D-Arg)-Arg-(2-Nal)-(D-Phe)); C-terminal amide
# B13: peptide 8: acyl-ZIZITGPHEEYK(FITC)-NH2 (peptide)
# peptide: acyl-[Tle]I[Tle]ITGPHEEYK(FITC″)-NH2
# modifications: reading uncertain; also: N-terminal acyl: halogenated and/or alkylated benzoyl, not named, printed as peptide 8: acyl-ZIZITGPHEEYK(FITC)-NH2
# B14: peptide 10: acyl-ZIZITGPHEEYK(FITC)-NH2 (peptide)
# peptide: [Tle]I[Tle]ITGPHEEYK(FITC)-NH2
# modifications: not fully specified (N-terminus); printed as acyl-ZIZITGPHEEYK(FITC)-NH2; also: N-terminal acyl group unspecified (halogenated/alkylated benzoyl, drawing only)
# B15: peptide 11: acyl-ZIZITGPHEEYK(FITC)-NH2 (peptide)
# peptide: [Tle]I[Tle]ITGPHEEYK(FITC)-NH2
# modifications: not fully specified (N-terminus); printed as acyl-ZIZITGPHEEYK(FITC)-NH2; also: N-terminal acyl group unspecified (halogenated/alkylated benzoyl, drawing only)
# B16: CNI103: (DCNA)-Tle-Ile-Bhv-Ile-Thr-Gln-His-(D-Leu)-Ser-miniPEG-Lys{[cyclo-(Gln-(D-Arg)-Arg-(D-Arg)-Arg-(2-Nal)-(D-Phe)]}-NH2 (peptide)
# peptide: XIXITQHLSKQRRRRXF
# modifications: not fully specified; N-terminal DCNA (2,3-dichlorisonicotinamide; Table 8 prints DCN); Tle at 1; Bhv = L-β-hydroxyvaline at 3 (Table 8 prints Hva); D-Leu; miniPEG; Lys side chain carrying cyclo-(Gln-(D-Arg)-Arg-(D-Arg)-Arg-(2-Nal)-(D-Phe)); C-terminal amide
# notes: also called CN103; compound 43
# Tests used:
# [1] = target: T1, calcineurin expressed as the glutathione S-transferase fusion protein (GST-CN) (UniProt Q08209 2-347); experiment: fluorescence anisotropy (FA), direct binding of FITC-labeled peptide
# T1 construct: also called CN-GST; recombinant GST-CN; not shown: glutathione S-transferase (GST) fusion partner
# Protocol: (§1) Fluorescence Polarization. Fluorescence polarization (FP) experiments were carried out to measure binding affinity in both direct and competitive binding experiments using GST-CN and peptides prepared as mentioned previously. […] Solutions were incubated for 1 h at RT with gentle mixing and then pipetted into black 384-well microplates. Fluorescence polarization was measured on a TECAN Infinite M1000 plate reader and titration curves were fitted using both KaelidaGraph v 3.6 and GraphPad PRISM to the equation: […]
# (§2) Additional characterization of CNI95 (including in vivo evaluation) is currently ongoing.
# [2] = target: T1, calcineurin expressed as the …; experiment: fluorescence anisotropy (FA), direct binding of FITC-labeled peptide to GST-CN
# Protocol: as §1
# [3] = target: T1, calcineurin expressed as the …; experiment: FA-based competition (FP): 50 nM FITC-labeled peptide 14 as probe, 100 nM GST-CN, competitor titrated
# Protocol: (§3) Serial dilutions of competitor peptides were prepared in PBS with 0.01% Trition-X100 and then added to the incubation solution and equilibrated at RT with gentle mixing for 1 h. Samples were pipetted into 384-well black microplates and FP signal was measured using a TECAN Infinite M1000 plate reader and analyzed using GraphPad PRISM v.6.
# [4] = target: T1, calcineurin expressed as the …; experiment: direct binding by FA
# Protocol: as §1
# [5] = target: T1, calcineurin expressed as the …; experiment: FP competition: 15 nM FITC-labeled compound 35 as probe, 15 nM GST-CN, unlabeled inhibitor titrated
# Protocol: (§4) Serial dilutions of unlabeled inhibitor were prepared in pH 7.4 PBS containing 0.01% Triton-X100, to which was added the incubation solution and mixed for 1 h at RT. 20 μL aliquots from each concentration were added into 384-well black-on-black microplates and fluorescence polarization was measured using a TECAN Infinite M1000 plate reader. IC50 values were calculated using GraphPad PRISM v. 7.
# [6] = target: T1, calcineurin expressed as the …; experiment: FA-based competition assay, inhibition of the binding of peptide 14 to CN
# Protocol: as §3, §2
# [7] = target: T1, calcineurin expressed as the …; experiment: FP competition (Condition E): 50 nM probe, 50 nM CN-GST, unlabeled compound titrated
# Protocol: Binding Affinity. […] Serial dilutions of each unlabeled compound were prepared in pH 7.4 PBS containing 0.01% Triton-X100, to which was added the incubation solution and mixed for 1 hr at RT after which 20 μL sample was pipetted into 384-well black-on-black microplates and fluorescence polarization was measured using a TECAN Infinite M1000 plate reader. IC₅₀ values were calculated using GraphPad PRISM v.
# [8] = target: T1, calcineurin expressed as the …; experiment: FP competition with FITC-labeled compound 35 for GST-CN
# Protocol: as §4
# [9] = target: T1, calcineurin expressed as the …; experiment: fluorescence anisotropy (FA), direct binding
# mouse plasma proteins = experiment: rapid equilibrium dialysis (RED) of CNI103 in mouse plasma, 37° C., 5 hours, LC/MS/MS
# T1 sequence (Q08209 2-347): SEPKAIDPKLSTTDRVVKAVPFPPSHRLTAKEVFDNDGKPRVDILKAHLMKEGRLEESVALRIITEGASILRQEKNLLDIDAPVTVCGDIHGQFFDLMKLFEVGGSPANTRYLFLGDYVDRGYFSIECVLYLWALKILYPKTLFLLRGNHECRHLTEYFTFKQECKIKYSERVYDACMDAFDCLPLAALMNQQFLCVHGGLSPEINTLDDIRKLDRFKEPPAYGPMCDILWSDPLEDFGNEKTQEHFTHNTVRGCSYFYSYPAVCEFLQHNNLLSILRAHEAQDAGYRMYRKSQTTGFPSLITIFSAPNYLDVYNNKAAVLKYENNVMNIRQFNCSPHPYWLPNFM
binder,measurement,setting,value
B1,Kd,[1],17 nM
cyclohexylcarbonyl-[Tle]I[Tle]ITGPHEEYK(FITC″)-NH2 [peptide 4: cyclohexylcarbonyl-ZIZITGPHEEYK(FITC)-NH2],Kd,[2],207 nM
Ac-GPHP[Tle]I[Tle]ITGPHEEYK(FITC″)-NH2 [peptide 1: Ac-GPHPZIZITGPHEEYK(FITC)-NH2],Kd,[2],92 nM
B2,IC50,[3],127 nM
same,fold lower CN-binding affinity (relative to peptide 14),[4],8 fold
B3,Kd,[2],32 nM
B4,IC50,[5],107 nM
Bz-[Tle]I[Tle]ITGPHEEYK(FITC″)-NH2 [peptide 2: benzoyl-ZIZITGPHEEYK(FITC)-NH2],Kd,[2],224 nM
B5,IC50,[5],73.5 nM
B6,IC50,[5],96.5 nM
"{Benzoyl(2,3-Cl2)}-[Tle]I[Tle]ITQH[dL]S[βAla]K(FITC″) (also called FITC-labeled peptide 14) [peptide 14: Dcb-ZIZIT-Gln-His-leu-Ser-βAla-Lys (FITC)]",Kd,[2],9.1 nM
"{Benzoyl(2,3-Cl2)}-[Tle]I[Tle]ITQH[dL]H[βAla]K(FITC″) [peptide 15: Dcb-ZIZIT-Gln-His-leu-His-βAla-Lys (FITC)]",Kd,[2],4.7 nM
cyclopentylcarbonyl-[Tle]I[Tle]ITGPHEEYK(FITC″)-NH2 [peptide 3: cyclopentylcarbonyl-ZIZITGPHEEYK(FITC)-NH2],Kd,[2],357 nM
B7,fold higher potency (relative to CNI93),[6],~5 fold
"{Benzoyl(2,3-Cl2)}-[Tle]I[Tle]ITY[dE][Phe(4-F)]G[βAla]K(FITC) [peptide 13: Dcb-ZIZIT-Tyr-glu-Fpa-Gly-βAla-Lys (FITC)]",Kd,[2],12 nM
B8,IC50,[7],857 nM
B9,IC50,[5],45.6 nM
B10,IC50,[3],426 nM
B11,IC50,[7],184 nM
same,IC50,[5],184 nM
B12,fold higher potency (relative to CNI103),[8],~5 fold
same,IC50,[5],44.9 nM
"{Benzoyl(2,3-Cl2)}-[Tle]I[Tle]IT[miniPEG]K(FITC′) [peptide 12: Dcb-ZIZIT-miniPEG-Lys (FITC)]",fold decrease in binding affinity (relative to peptide 9),[9],17 fold
same,Kd,[2],700 nM
"{Benzoyl(2,3-Cl2)}-[Tle]I[Tle]ITGPHEEYK(FITC″)-NH2 [peptide 9: Dcb-ZIZITGPHEEYK(FITC)-NH2]",Kd,[2],41 nM
B13,Kd,[2],74 nM
B14,Kd,[2],189 nM
B15,Kd,[2],77 nM
B16,% Binding,mouse plasma proteins,97.6%
same,IC50,[7],223 nM
same,IC50,[5],223 nM
